For this assay, the target named is T1, B cell maturation antigen (BCMA) (UniProt Q02223 1-54, limits assumed).
T1 construct: also called CD269; TNFRSF17
T1 sequence (looked up): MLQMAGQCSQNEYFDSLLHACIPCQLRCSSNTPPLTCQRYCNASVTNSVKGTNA
The assay can be described thus: not stated (no method given).

This is an account of results in patent US20250195657A1 (NEOMICS PHARMACEUTICALS, published 2025).

B1: BCMA nanobody (BCMA binding domain of NPB5005) (VHH)
VHH: EVQLQASGGGLAQPGGSLRLSCAASGRTFSTYFMAWFRQPPGKGLEYVGGIRWSDGVPHYADSVKGRFTISRDNAKNTVYLQMNSLRAEDTAVYFCASRGIADGSDFGSYGQGTQVTVSS
Consider B1, for which the dissociation constant Kd worked out at 1 nM.

One may read the Kd as a measure of binding affinity in units of concentration.
